Paper PMC8325959
One block for each substance: values may come before it.

Molecular target: recombinant human GST–PBD (UniProt P53350)
Test: in vitro binding assay, western blot quantification
Conditions: read off a plot

Sequence of UniProt P53350 (P53350 whole entry, looked up): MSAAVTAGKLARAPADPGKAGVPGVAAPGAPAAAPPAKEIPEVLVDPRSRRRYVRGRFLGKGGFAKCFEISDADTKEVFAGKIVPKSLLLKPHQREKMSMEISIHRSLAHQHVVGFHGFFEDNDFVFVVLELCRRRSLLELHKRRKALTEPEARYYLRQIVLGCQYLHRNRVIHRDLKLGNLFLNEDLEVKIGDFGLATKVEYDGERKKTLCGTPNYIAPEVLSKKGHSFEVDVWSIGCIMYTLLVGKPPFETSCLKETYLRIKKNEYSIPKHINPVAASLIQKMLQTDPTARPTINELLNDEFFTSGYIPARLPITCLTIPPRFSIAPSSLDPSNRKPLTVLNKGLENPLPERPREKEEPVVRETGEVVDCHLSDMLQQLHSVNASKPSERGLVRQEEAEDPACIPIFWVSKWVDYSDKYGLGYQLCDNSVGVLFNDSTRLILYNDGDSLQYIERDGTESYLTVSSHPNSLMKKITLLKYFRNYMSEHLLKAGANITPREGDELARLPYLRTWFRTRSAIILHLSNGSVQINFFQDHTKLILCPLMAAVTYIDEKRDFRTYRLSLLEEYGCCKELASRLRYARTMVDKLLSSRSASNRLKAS

- response (repeat PLK1 #1, MBP–CTb pre-treated with PLK1 (+), parent: est. 1.7): 1.1 a.u.
- response (repeat PLK1 #2, MBP–CTb pre-treated with PLK1 (+), parent: est. 1.9): 1.5 a.u.
- response (repeat PLK1 #3, MBP–CTb pre-treated with PLK1 (+), parent: est. 1.8): 1.4 a.u.
- response (repeat PLK1 #4, MBP–CTb pre-treated with PLK1 (+), parent: est. 2.2): 1.3 a.u.
Substance: MBP–CTb (WT Ana1 CTb fragment), phosphorylated by PLK1 in vitro (from UniProt Q9VC64) S10T

- response (repeat Aurora #1, MBP–CTb pre-treated with Aurora A (+), parent: est. 1.4): 1.2 a.u.
- response (repeat Aurora #2, MBP–CTb pre-treated with Aurora A (+), parent: est. 1.5): 1.2 a.u.
Substance: MBP–CTb (WT Ana1 CTb fragment), phosphorylated by Aurora A in vitro S10T

- response (repeat Aurora #1, no kinase (-), parent: est. 1.4): 1 a.u.
- response (repeat Aurora #2, no kinase (-), parent: est. 1.3): 1 a.u.
- response (repeat PLK1 #1, no kinase (-), parent: est. 1.1): 1 a.u.
- response (repeat PLK1 #2, no kinase (-), parent: est. 1.2): 1 a.u.
- response (repeat PLK1 #3, no kinase (-), parent: est. 1.3): 1 a.u.
- response (repeat PLK1 #4, no kinase (-), parent: est. 1.3): 1 a.u.
Substance: MBP–CTb (WT Ana1 CTb fragment), pre-treated with buffer S10T

Substance: MBP–CTa (WT Ana1 CTa fragment), pre-treated with PLK1 S10T
- response (single repeat PLK1 + CTa, MBP–CTa pre-treated with PLK1 (+), parent: est. 1.0): 1.1 a.u.
